Measured values published in PMC4552014, “High Affinity Binders to EphA2 Isolated from Abdurin Scaffold Libraries; Characterization, Binding and Tumor Targeting” (PLoS ONE, 2015).

Key:
human FcRn (human) = human FcRn (human) (UniProt P55899); experiment: SPR; Biacore 3000, on hFcRn; who was immobilised and the conditions not given
hEphA2-Fc = biological target: T1, hEphA2-Fc (human, UniProt P29317 24-537); experiment: ELISA; end-point titration ELISA in 96-well plates coated with hEphA2-Fc or mEphA2-Fc; purified Abdurins titrated; detected by anti-FLAG M2-HRP; the constant is printed as 'Affinity (M)'; details: both partners purified
T1 construct: EphA2, human, as Fc fusion coated on 96-well plates; Probably the extracellular domain; also called huEphA2

[1] = biological target: T2, murine EphA2-Fc fusion protein (mouse, UniProt Q03145 26-538); experiment: as above; details: both partners purified
T2 construct: ephrin receptor tyrosine kinase class A2 (EphA2), mouse, extracellular domain as Fc chimera; Biotinylated in-house (EZ-Link Sulfo-NHS-LC-Biotin) for the CIS display selections and the screening ELISA; also called mEphA2-Fc; mEphA2; source: bought: R&D Systems

[2] = biological target: human EphA2 recombinant protein (human, UniProt P29317 24-976, Construct limits are not given; the soluble recombinant receptor is taken as the mature extracellular domain from the UniProt features. The Fig 3 legend names an Fc fusion (hEphA2-Fc), and the Fc is); experiment: SPR; Biacore 3000; hEphA2 immobilised on CM5 chip by amine coupling (500 RU); Abdurins as analyte, multi-cycle kinetics in HBS-P (50 mM Hepes pH 7.4, 150 mM NaCl, 0.005% P-20), 40 μl/minute; 1:1 binding model; repeated three times; details: both partners purified
[3] = biological target: T3, hEphA2 on CHOK1-EphA2 cells (human, UniProt P29317 24-976); experiment: flow cytometry on cells; Abdurins at 1nM to 7μM incubated with CHOK1-EphA2 cells; detected with mouse anti-HisTag-FITC; the constant is printed as 'Affinity (M)'; details: one partner purified
T3 construct: EphA2, human, transfection-ready hEphA2 cDNA (OriGene Technologies); also called cell-surface expressed hEphA2; source: CHOK1 cells transfected with hEphA2 cDNA (OriGene Technologies), single cell clone, on cells

[4] = biological target: T2, murine EphA2-Fc fusion protein; experiment: SPR; Biacore 3000, on mEphA2; purified Abdurins from E. coli; immobilisation for mEphA2 not described; details: both partners purified

T1 sequence (P29317 24-537): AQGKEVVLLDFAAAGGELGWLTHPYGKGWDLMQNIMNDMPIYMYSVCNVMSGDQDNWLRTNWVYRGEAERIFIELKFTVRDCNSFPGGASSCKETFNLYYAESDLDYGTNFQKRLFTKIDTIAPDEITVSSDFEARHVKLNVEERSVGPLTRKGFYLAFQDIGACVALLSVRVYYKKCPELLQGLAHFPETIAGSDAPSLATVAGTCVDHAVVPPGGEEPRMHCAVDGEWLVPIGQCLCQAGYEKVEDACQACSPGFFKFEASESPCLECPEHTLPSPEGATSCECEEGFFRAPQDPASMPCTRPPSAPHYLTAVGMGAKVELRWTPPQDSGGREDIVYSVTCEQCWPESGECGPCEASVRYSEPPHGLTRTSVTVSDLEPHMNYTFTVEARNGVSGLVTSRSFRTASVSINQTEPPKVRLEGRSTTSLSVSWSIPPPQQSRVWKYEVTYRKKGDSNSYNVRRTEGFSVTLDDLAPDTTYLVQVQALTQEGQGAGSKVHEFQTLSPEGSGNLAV
Sequence of human EphA2 recombinant protein (P29317 24-976): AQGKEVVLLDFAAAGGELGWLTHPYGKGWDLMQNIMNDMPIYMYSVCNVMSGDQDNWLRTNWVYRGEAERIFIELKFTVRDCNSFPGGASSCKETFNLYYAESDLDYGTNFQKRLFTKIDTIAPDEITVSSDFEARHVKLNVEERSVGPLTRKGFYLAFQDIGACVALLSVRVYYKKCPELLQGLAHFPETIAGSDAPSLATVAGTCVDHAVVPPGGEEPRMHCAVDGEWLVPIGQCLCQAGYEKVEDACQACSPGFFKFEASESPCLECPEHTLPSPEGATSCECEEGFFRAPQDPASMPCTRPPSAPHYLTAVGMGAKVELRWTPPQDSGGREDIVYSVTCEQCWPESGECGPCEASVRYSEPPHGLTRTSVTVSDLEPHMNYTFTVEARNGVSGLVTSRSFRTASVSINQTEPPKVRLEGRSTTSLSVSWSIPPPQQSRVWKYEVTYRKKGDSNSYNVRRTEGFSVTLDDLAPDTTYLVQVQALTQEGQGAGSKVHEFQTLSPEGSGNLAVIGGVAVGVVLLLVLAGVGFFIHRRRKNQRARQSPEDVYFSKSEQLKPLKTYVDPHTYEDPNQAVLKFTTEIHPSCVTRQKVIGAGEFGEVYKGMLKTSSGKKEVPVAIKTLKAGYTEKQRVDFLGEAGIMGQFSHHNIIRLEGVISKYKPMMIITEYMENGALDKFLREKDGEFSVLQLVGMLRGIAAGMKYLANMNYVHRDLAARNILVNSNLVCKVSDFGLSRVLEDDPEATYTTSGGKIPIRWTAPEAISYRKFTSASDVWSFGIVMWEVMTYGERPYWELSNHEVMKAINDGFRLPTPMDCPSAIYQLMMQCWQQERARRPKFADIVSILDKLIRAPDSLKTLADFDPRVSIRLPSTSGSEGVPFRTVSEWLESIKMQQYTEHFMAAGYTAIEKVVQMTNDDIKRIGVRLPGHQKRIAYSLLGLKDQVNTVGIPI
T3 sequence (P29317 24-976): as above
T2 sequence (Q03145 26-538): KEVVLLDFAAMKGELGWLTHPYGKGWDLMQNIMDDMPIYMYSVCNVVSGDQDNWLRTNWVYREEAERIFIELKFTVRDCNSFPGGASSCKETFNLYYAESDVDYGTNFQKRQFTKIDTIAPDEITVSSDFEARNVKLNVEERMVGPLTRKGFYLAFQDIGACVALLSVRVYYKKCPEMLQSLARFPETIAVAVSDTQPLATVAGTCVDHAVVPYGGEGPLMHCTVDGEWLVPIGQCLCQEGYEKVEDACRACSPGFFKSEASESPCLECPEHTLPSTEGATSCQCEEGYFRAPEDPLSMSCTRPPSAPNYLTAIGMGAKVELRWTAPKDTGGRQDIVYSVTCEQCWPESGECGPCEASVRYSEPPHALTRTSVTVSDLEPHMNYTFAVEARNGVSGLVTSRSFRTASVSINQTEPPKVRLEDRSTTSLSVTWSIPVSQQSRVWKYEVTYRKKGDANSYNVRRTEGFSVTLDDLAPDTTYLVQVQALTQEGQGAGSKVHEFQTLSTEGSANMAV

Molecule: shWTCH2 (version of the wild-type CH2 domain that has the N-terminal seven amino acids truncated) (domain or fragment)
- Kd (human FcRn (human)): 25 nM
- koff (human FcRn (human)): 0.017 s⁻¹
- kon (human FcRn (human)): 1.5e+06 M⁻¹ s⁻¹

B1: Abdurin B11, affinity matured EphA2 binder (designed binder)
chain: GPSVFLFPPKPKDTLMISRTPEVTCVVVDYRADYLEVKFNWYVDGVEVHNAKTKPRQYDPLYGYRVVSVLTVLHQDWLNGKEYKCKVSNKALPAPIEKTISKAK
notes: Abdurin scaffold (human IgG1 CH2 domain), stretch before loop BC; loop BC of matured clone B11, in place of Val266-Pro271 (VSHEDP) of the scaffold; Abdurin scaffold (human IgG1 CH2 domain), stretch between loops BC and DE; loop DE from the parental clone E10, in place of Glu293-Thr299 (EEQYNST); Abdurin scaffold (human IgG1 CH2 domain), stretch after loop DE; Not the phage loop DE clone of the …
- Kd (human FcRn (human)): 26 nM
- koff (human FcRn (human)): 0.013 s⁻¹
- kon (human FcRn (human)): 1.1e+06 M⁻¹ s⁻¹
- Kd (hEphA2-Fc): 4.43 nM
- Kd [1]: 9.89 nM
- koff [2]: 0.0158 s⁻¹
- kon [2]: 1.21e+06 M⁻¹ s⁻¹
- Kd [3]: 403 nM

B2: Abdurin D2, affinity matured EphA2 binder (designed binder)
chain: GPSVFLFPPKPKDTLMISRTPEVTCVVVDYEAAALEVKFNWYVDGVEVHNAKTKPRQYDPLYGYRVVSVLTVLHQDWLNGKEYKCKVSNKALPAPIEKTISKAK
notes: Abdurin scaffold (human IgG1 CH2 domain), stretch before loop BC; loop BC of matured clone D2, in place of Val266-Pro271 (VSHEDP) of the scaffold; Abdurin scaffold (human IgG1 CH2 domain), stretch between loops BC and DE; loop DE from the parental clone E10, in place of Glu293-Thr299 (EEQYNST); Abdurin scaffold (human IgG1 CH2 domain), stretch after loop DE; Not the phage loop DE clone of the …
- Kd (hEphA2-Fc): 2.55 nM
- Kd [1]: 1.97 nM
- Kd [3]: 1310 nM

B3: Abdurin H6, purified loop DE binder (designed binder)
chain: GPSVFLFPPKPKDTLMISRTPEVTCVVVDVSHEDPEVKFNWYVDGVEVHNAKTKPRRVDPLGGYRVVSVLTVLHQDWLNGKEYKCKVSNKALPAPIEKTISKAK
notes: Abdurin scaffold (human IgG1 CH2 domain), stretch before loop DE; loop DE of clone H6, in place of Glu293-Thr299 (EEQYNST) of the scaffold; Abdurin scaffold (human IgG1 CH2 domain), stretch after loop DE
- Kd [4]: 873 nM
- koff [4]: 0.008 s⁻¹
- kon [4]: 9610 M⁻¹ s⁻¹

B4: Abdurin B6, affinity matured EphA2 binder (designed binder)
chain: GPSVFLFPPKPKDTLMISRTPEVTCVVVDPYLHDDEVKFNWYVDGVEVHNAKTKPRQYDPLYGYRVVSVLTVLHQDWLNGKEYKCKVSNKALPAPIEKTISKAK
notes: Abdurin scaffold (human IgG1 CH2 domain), stretch before loop BC; loop BC of matured clone B6, in place of Val266-Pro271 (VSHEDP) of the scaffold; Abdurin scaffold (human IgG1 CH2 domain), stretch between loops BC and DE; loop DE from the parental clone E10, in place of Glu293-Thr299 (EEQYNST); Abdurin scaffold (human IgG1 CH2 domain), stretch after loop DE; source: E. coli Shuffle cells, …
- Kd (human FcRn (human)): 38 nM
- koff (human FcRn (human)): 0.011 s⁻¹
- kon (human FcRn (human)): 1.1e+06 M⁻¹ s⁻¹
- Kd (hEphA2-Fc): 6.54 nM
- Kd [1]: 3.5 nM
- koff [2]: 0.0496 s⁻¹
- kon [2]: 716000 M⁻¹ s⁻¹
- Kd [3]: 151 nM

B5: Abdurin G7, affinity matured EphA2 binder (designed binder)
chain: GPSVFLFPPKPKDTLMISRTPEVTCVVVDPHLGVDEVKFNWYVDGVEVHNAKTKPRQYDPLYGYRVVSVLTVLHQDWLNGKEYKCKVSNKALPAPIEKTISKAK
notes: Abdurin scaffold (human IgG1 CH2 domain), stretch before loop BC; loop BC of matured clone G7, in place of Val266-Pro271 (VSHEDP) of the scaffold; Abdurin scaffold (human IgG1 CH2 domain), stretch between loops BC and DE; loop DE from the parental clone E10, in place of Glu293-Thr299 (EEQYNST); Abdurin scaffold (human IgG1 CH2 domain), stretch after loop DE; source: E. coli Shuffle cells, …
- Kd (hEphA2-Fc): 8.06 nM
- Kd [1]: 3.18 nM
- koff [2]: 0.0375 s⁻¹
- kon [2]: 1.8e+06 M⁻¹ s⁻¹
- Kd [3]: 333 nM
